In assay [1] the target is β-sliding processivity clamp (Escherichia coli) (UniProt P0A988).
Assay [2] has the same target. The source holds these as a separate data set.
The target is the same in assay [3]. The source holds these as a separate data set.
Assay [4] shares this target. This is another data set of the same source.
Assay [5] has the same target. The source holds these as a separate data set.
The target is the same in assay [6]. This is another data set of the same source.

Chain of β-sliding processivity clamp (Escherichia coli) (P0A988 whole entry): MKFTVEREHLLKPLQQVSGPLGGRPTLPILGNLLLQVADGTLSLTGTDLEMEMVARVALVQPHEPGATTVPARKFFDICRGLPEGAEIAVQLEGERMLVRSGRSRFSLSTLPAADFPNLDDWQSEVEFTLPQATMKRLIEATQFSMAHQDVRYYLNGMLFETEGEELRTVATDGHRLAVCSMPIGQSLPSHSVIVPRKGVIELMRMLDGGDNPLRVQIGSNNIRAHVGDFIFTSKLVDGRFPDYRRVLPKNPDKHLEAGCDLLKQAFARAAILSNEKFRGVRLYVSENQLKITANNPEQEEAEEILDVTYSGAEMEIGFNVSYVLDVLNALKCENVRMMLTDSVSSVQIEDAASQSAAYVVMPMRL
Chain of pol V Mut WT (UmuD’2C-RecA-ATP/ATPγS) (P04152 whole entry): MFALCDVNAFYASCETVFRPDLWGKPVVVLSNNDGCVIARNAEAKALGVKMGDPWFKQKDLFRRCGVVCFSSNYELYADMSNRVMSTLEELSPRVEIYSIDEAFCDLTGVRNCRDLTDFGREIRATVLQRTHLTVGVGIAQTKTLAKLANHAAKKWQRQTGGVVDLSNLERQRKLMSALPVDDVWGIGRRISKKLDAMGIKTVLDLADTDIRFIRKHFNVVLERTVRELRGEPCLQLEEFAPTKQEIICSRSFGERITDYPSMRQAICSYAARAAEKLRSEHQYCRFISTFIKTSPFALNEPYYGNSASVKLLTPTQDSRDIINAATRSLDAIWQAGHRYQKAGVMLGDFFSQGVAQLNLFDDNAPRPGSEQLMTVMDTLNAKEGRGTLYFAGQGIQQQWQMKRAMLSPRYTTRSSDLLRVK
Chain of pol V Mut WT (UmuD’2C-RecA-ATP/ATPγS) (P0AG11 25-139): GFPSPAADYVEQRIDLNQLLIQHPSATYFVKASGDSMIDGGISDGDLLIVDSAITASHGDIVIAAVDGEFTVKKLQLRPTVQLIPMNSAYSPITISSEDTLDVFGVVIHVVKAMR
Chain of pol V Mut WT (UmuD’2C-RecA-ATP/ATPγS) (P0A7G6 whole entry): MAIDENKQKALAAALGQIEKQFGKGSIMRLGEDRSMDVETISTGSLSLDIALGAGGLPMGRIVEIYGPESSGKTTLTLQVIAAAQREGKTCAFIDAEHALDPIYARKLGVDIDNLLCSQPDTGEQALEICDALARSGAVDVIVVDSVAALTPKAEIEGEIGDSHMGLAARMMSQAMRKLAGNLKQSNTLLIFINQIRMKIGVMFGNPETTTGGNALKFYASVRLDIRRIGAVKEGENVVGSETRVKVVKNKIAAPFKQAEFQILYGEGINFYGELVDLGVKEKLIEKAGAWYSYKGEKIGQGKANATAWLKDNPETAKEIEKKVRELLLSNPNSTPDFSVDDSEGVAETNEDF

With “pol V Mut E38K/∆C17 (UmuD’2C-RecA E38K/∆C17-ATP/ATPγS) (from UniProt P04152 1-422; P0AG11 25-139; P0A7G6 1-353) (complex)”, the percent of primer extended (% PE) on undamaged circular p/t DNA by pol V Mut E38K/ΔC17-ATPγS with β-clamp and γ-complex (γ-complex stays on β with ATPγS) in assay [1] was found to be 42%. The substance further gave a fold increase of DNA elongation rate by β on undamaged DNA, pol V Mut E38K/ΔC17-ATP in assay [2] of 7 fold. This substance returned a percent of primer extended (% PE) on undamaged circular p/t DNA by pol V Mut E38K/ΔC17-ATP with β-clamp and γ-complex, 15-120 min (10% at 120 min without β) in assay [3] of 77%.
In assay [4], “pol V Mut WT (UmuD’2C-RecA-ATP/ATPγS) (from UniProt P04152 1-422; P0AG11 25-139; P0A7G6 1-353) (complex)” gave a percent of primer extended (% PE) on undamaged circular p/t DNA by pol V Mut WT-ATP with β-clamp and γ-complex, 15-120 min (about 1% without β) of 5%. Further, the percent of primer extended (% PE) on undamaged circular p/t DNA by pol V Mut WT-ATPγS with β-clamp and γ-complex, 15-120 min (~5% at 60 min without β) in assay [5] is above 40%. Besides, the fold increase of DNA elongation rate by β on undamaged DNA, pol V Mut WT-ATP in assay [2] was 5 fold. This substance also registered a translesion synthesis past an abasic site 3 nt from the primer end, % PE, pol V Mut WT with dATP, ATPγS and β/γ, up to 120 min in assay [6] of 35%.

For the origin of these results see PMC8147279.
